# Data from patent US20250051463A1, “CD123 ANTIBODY-DRUG CONJUGATES AND METHODS OF USING THE SAME” (ASTRAZENECA AB, priority 2023, published 2025).
# B1: pivekimab sunirine (conjugate, chains of the INN, looked up)
# VH: QVQLVQSGAEVKKPGASVKVSCKASGYIFTSSIMHWVRQAPGQGLEWIGYIKPYNDGTKYNEKFKGRATLTSDRSTSTAYMELSSLRSEDTAVYYCAREGGNDYYDTMDYWGQGTLVTVSS
# VL: EIQMTQSPSSLSASVGDRVTITCRASQDINSYLSWFQQKPGKAPKTLIYRVNRLVDGVPSRFSGSGSGNDYTLTISSLQPEDFATYYCLQYDAFPYTFGQGTKVEIK
# modifications: sunirine payload
# What was measured:
# [1] = system: subcutaneous EOL-1 tumors; assay: EOL-1 subcutaneous xenograft study; type: in vivo, Nude mice; settings: 0.24 mg/kg at a single dose
# Experimental: EOL-1 cells that express about 2,000 CD123/IL3Rα per cell were maintained in the RPMI-1640 medium containing 10% heat-inactivated FBS and were cultured in a humidified atmosphere of 5% CO2 and at a temperature of 37° C. On the day of implantation, cells were spun down at 1500 rpm for 5 minutes, counted, and resuspended to a final concentration of 50×10^6 cells/mL in PBS. Female Nude mice were each injected subcutaneously in the right flank with 10×10^6 cells in 200 μL volume. When average tumor volume reached ˜150-250 mm^3 on Day 9, mice were randomized into treatment groups using the Matched Distribution method built into the Study Director software.
# Test and control ADC were diluted from a stock solution with vehicle buffer (20 mM histidine, 240 mM sucrose, 0.02% Polysorbate 80, pH 6.0) and were administered as a single intravenous (IV) injection according to body weight.
# Tumor volume and body weight were measured twice weekly from Day 6 to Day 60 after EOL-1 implant. Tumors were measured by caliper and the volumes of tumors were calculated using the following formula:
# Tumor Volume=[length (mm)×width (mm)^2]/2; where the length and the width are the longest and shortest diameters of the tumor respectively.
# [2] = system: HUVEC; assay: CellTiter-Glo cell viability, 3 days; type: cell-based
# Experimental: (§1) The CD123-expressing endothelial cell lines HUVEC and HPAEC and control cell lines RPMI-8226 (high CD123 expressing) and K562 (low expressing or negative for CD123) were cultured and co-incubated with Comparator-1 ADC, NIP228-SG3932 (isotype control for HT12-GL-SG3932) HT12-GL-SG3932, or CD123 mAb (HT12-GL) for 3 days at concentrations ranging from 0.0017 to 520 μg/mL for CD123 mAb, HT12-GL-SG3932, or NIP228-SG3932) or 0.0010 to 320 μg/mL for IMGN-IGN). Cell viability was assessed by CellTiter-Glo Cell Viability Assay and IC50 for viability was calculated (when possible) for each compound for each cell line. Expression of CD123 was assessed by western blot surface expression or by flow cytometry (FIG. 9C-9H).
# [3] = system: HPAEC; assay: CellTiter-Glo cell viability, 3 days; type: cell-based
# Experimental: as §1
# [4] = system: RPMI-8226; assay: CellTiter-Glo cell viability, 3 days; type: cell-based
# Experimental: as §1
# [5] = system: K562; assay: CellTiter-Glo cell viability, 3 days; type: cell-based
# Experimental: as §1
molecule,measurement,setting,value
B1,anti-tumor effect (tumor volume),[1],complete tumor regression
same,Cytotoxicity (Viability IC50) HUVEC,[2],6.9 µg/mL
same,Cytotoxicity (Viability IC50) HPAEC,[3],6.0 µg/mL
same,Cytotoxicity (Viability IC50) RPMI-8226,[4],53.9 µg/mL
same,Cytotoxicity (Viability IC50) K562,[5],10.3 µg/mL
